Laboratory results reported in article PMC8781954, “High-Efficiency Expression and Purification of DNAJB6b Based on the pH-Modulation of Solubility and Denaturant-Modulation of Size” (Molecules, 2022).

Biological target: T1, DNAJB6b wt (human, UniProt O75190-2 1-241)
T1 construct: DNAJB6b, human, the 241-residue b isoform of DNAJB6; No tags; also called wt DNAJB6b; unlabelled DNAJB6b
Assay: native gel or EMSA; agarose gel imaged on an IR fluorescence scanner; 5 nM DNAJB6b-CCys-IR680 mixed with unlabelled DNAJB6b-wt to total concentrations of 5 nM to 32 µM
Conditions: both partners purified

T1 sequence (O75190 other isoform, or with tags, fused parts or gaps): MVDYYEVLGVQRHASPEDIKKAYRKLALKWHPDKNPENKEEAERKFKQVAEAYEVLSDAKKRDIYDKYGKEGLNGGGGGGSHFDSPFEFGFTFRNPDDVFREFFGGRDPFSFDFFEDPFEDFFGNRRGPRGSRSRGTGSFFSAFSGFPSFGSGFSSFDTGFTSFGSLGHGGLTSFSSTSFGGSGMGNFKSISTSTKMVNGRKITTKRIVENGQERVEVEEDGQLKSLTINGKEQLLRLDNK

binding result: binds
B1: DNAJB6b-CCys-IR680 (natural protein)
chain: not shown
modifications: IRdye-680 (maleimide dye) on the engineered C-terminal cysteine
notes: DNAJB6b, human, the 241-residue b isoform of DNAJB6, no tags; a cysteine residue added at the C-terminus (variant CCys); also called IR680-labelled DBAJB6b; DNAJB6-CCys labelled with IRdye680; source: E. coli BL21 DE3 pLysS star, purified as wt with 1 mM DTT in all buffers; labelled with IRdye680 maleimide, free dye removed by SEC
